# Results taken from the supplement of paper PMC10567573.
# B1: SNAP91 (parent)
# chain: FAAPSPATTASPAKVDSSGVIDLF
# Variants of: B1
# Assay: protein stability index of a GFP-peptide fusion (GPS, HEK-293T) (PSI 1-6); higher = more stable
# Conditions: c terminus: a fixed tail appended
# 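Also: lentivirally expressed fusions sorted by FACS into six bins by GFP to DsRed ratio, PSI derived from sequencing read proportions per bin multiplied by bin number.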
row,Variant,protein stability index
1,FAAPSPATTAVPAKVDSSGVIDLF,2.38
2,FAAPSPATTAQPAKVDSSGVIDLF,2.56
3,FAAPSPATTAWPAKVDSSGVIDLF,1.33
4,FAAPSPATTAIPAKVDSSGVIDLF,2.3
5,FAAPSPATTAKPAKVDSSGVIDLF,2.6
6,FAAPSPATTAEPAKVDSSGVIDLF,2.69
7,FAAPSPATTARPAKVDSSGVIDLF,2.45
8,FAAPSPATTANPAKVDSSGVIDLF,2.38
9,FAAPSPATTAHPAKVDSSGVIDLF,2.08
10,FAAPSPATTAGPAKVDSSGVIDLF,2.45
11,FAAPSPATTAYPAKVDSSGVIDLF,2.35
12,FAAPSPATTAMPAKVDSSGVIDLF,2.28
13,FAAPSPATTALPAKVDSSGVIDLF,2.77
14,FAAPSPATTADPAKVDSSGVIDLF,2.73
15,FAAPSPATTACPAKVDSSGVIDLF,2.14
16,FAAPSPATTATPAKVDSSGVIDLF,2.48
17,FAAPSPATTAAPAKVDSSGVIDLF,2.47
18,FAAPSPATTAFPAKVDSSGVIDLF,1.96
19,FAAPSQATTASPAKVDSSGVIDLF,2.63
20,FAAPSYATTASPAKVDSSGVIDLF,1.7
21,FAAPSMATTASPAKVDSSGVIDLF,2.44
22,FAAPSVATTASPAKVDSSGVIDLF,1.82
23,FAAPSGATTASPAKVDSSGVIDLF,2.31
24,FAAPSHATTASPAKVDSSGVIDLF,2.36

row,Variant,protein stability index
1,FAAPSTATTASPAKVDSSGVIDLF,2.23
2,FAAPSIATTASPAKVDSSGVIDLF,1.84
3,FAAPSSATTASPAKVDSSGVIDLF,2.65
4,FAAPSNATTASPAKVDSSGVIDLF,2.94
5,FAAPSRATTASPAKVDSSGVIDLF,1.95
6,FAAPSKATTASPAKVDSSGVIDLF,2.16
7,FAAPSLATTASPAKVDSSGVIDLF,1.49
8,FAAPSWATTASPAKVDSSGVIDLF,2.35
9,FAAPSFATTASPAKVDSSGVIDLF,2.02
10,FAAPSPATTASPQKVDSSGVIDLF,2.37
11,FAAPSPATTASPDKVDSSGVIDLF,2.71
12,FAAPSPATTASPHKVDSSGVIDLF,2.3
13,FAAPSPATTASPVKVDSSGVIDLF,2.79
14,FAAPSPATTASPGKVDSSGVIDLF,1.98
15,FAAPSPATTASPNKVDSSGVIDLF,2.38
16,FAAPSPATTASPTKVDSSGVIDLF,2.33
17,FAAPSPATTASPSKVDSSGVIDLF,2.25
18,FAAPSPATTASPWKVDSSGVIDLF,2.12
19,FAAPSPATTASPCKVDSSGVIDLF,2.29
20,FAAPSPATTASPLKVDSSGVIDLF,2.43
21,FAAPSPATTASPPKVDSSGVIDLF,3.09
22,FAAPSPATTASPEKVDSSGVIDLF,2.61
23,FAAPSPATTASPKKVDSSGVIDLF,3.05
24,FAAPSPATTASPMKVDSSGVIDLF,2.31

row,Variant,protein stability index
1,FAAPSPATTASPYKVDSSGVIDLF,1.83
2,FAAPSPATTASPIKVDSSGVIDLF,1.92
3,FAAPSPATTASPRKVDSSGVIDLF,2.34
4,FAAPSPATTASPFKVDSSGVIDLF,2.01
5,FAAPSPAFTASPAKVDSSGVIDLF,1.33
6,FAAPSPAATASPAKVDSSGVIDLF,2.62
7,FAAPSPAMTASPAKVDSSGVIDLF,2.7
8,FAAPSPARTASPAKVDSSGVIDLF,2.24
9,FAAPSPADTASPAKVDSSGVIDLF,2.65
10,FAAPSPAWTASPAKVDSSGVIDLF,2.33
11,FAAPSPAGTASPAKVDSSGVIDLF,2.3
12,FAAPSPAVTASPAKVDSSGVIDLF,2.85
13,FAAPSPACTASPAKVDSSGVIDLF,2.56
14,FAAPSPAKTASPAKVDSSGVIDLF,2.42
15,FAAPSPANTASPAKVDSSGVIDLF,2.58
16,FAAPSPAITASPAKVDSSGVIDLF,2.85
17,FAAPSPAYTASPAKVDSSGVIDLF,1.94
18,FAAPSPAHTASPAKVDSSGVIDLF,3.12
19,FAAPSPAQTASPAKVDSSGVIDLF,2.54
20,FAAPSPASTASPAKVDSSGVIDLF,2.52
21,FAAPSPAETASPAKVDSSGVIDLF,2.23
22,FAAPSPALTASPAKVDSSGVIDLF,2.27
23,FAAPSPATTASPAQVDSSGVIDLF,2.48
24,FAAPSPATTASPAHVDSSGVIDLF,2.46

row,Variant,protein stability index
1,FAAPSPATTASPALVDSSGVIDLF,2.28
2,FAAPSPATTASPASVDSSGVIDLF,2.29
3,FAAPSPATTASPAWVDSSGVIDLF,1.58
4,FAAPSPATTASPARVDSSGVIDLF,2.28
5,FAAPSPATTASPAGVDSSGVIDLF,2.05
6,FAAPSPATTASPACVDSSGVIDLF,2.41
7,FAAPSPATTASPAAVDSSGVIDLF,2.94
8,FAAPSPATTASPANVDSSGVIDLF,2.52
9,FAAPSPATTASPAPVDSSGVIDLF,2.7
10,FAAPSPATTASPAMVDSSGVIDLF,2.3
11,FAAPSPATTASPAVVDSSGVIDLF,2.77
12,FAAPSPATTASPAYVDSSGVIDLF,2.24
13,FAAPSPATTASPAEVDSSGVIDLF,2.81
14,FAAPSPATTASPADVDSSGVIDLF,2.47
15,FAAPSPATTASPAIVDSSGVIDLF,2.61
16,FAAPSPATTASPATVDSSGVIDLF,2.38
17,FAAPSPATTASPAFVDSSGVIDLF,1.86
18,FAAPSPATTASPAKKDSSGVIDLF,2.92
19,FAAPSPATTASPAKRDSSGVIDLF,2.6
20,FAAPSPATTASPAKIDSSGVIDLF,2.24
21,FAAPSPATTASPAKTDSSGVIDLF,2.82
22,FAAPSPATTASPAKLDSSGVIDLF,2.23
